Measured values reported in patent US5866680.
Like-named read-outs stand apart in the source and are kept apart here.

Tests used:
[1] = target: U1 snRNP-A 1-142 (Homo sapiens) (UniProt P09012); test: EMSA
[2] = target: U2 snRNP-B" 1-109 (Homo sapiens) (UniProt P08579); test: EMSA
[3] = target: A/B".1A pentamer mutant 1-142 L44V,V45A,S46L,R47K,S48T (Homo sapiens) (UniProt P09012); test: EMSA
[4] = tested on: U2 snRNP-B" + U2 snRNP-A' (Homo sapiens); test: pulldown; details: A' stimulates B" binding to U2 about 100-fold
[5] = legend says full-length U2, text says U2 stem-loop IV

Sequence of UniProt P08579 (P08579 1-109): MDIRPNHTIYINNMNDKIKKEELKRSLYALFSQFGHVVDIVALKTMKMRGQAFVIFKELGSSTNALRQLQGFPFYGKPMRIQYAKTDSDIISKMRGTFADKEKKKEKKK

For U1SL2 (U1 stem-loop II), which Kd ([1]; earlier estimate 80 nM quoted, 10 mM MgCl2, 150 mM NaCl) is on record?
Its Kd is 0.03 µM.

And the Kd [2]?
The Kd was 0.8 µM.

What about the Kd [3] of the same substance?
The Kd was 0.07 µM.

With human U2 RNA as the substance, how does the binding signal [4] read?
The binding signal was 100 fold.

And the Kd [1, 5]?
Its Kd is over 10 µM.

And the Kd [2, 5]?
Its Kd is 0.4 µM.

And the Kd [3, 5]?
Its Kd is 0.9 µM.
